Reference: article PMC10641286
Like-named read-outs stand apart in the source and are kept apart here.

Key:
[1] = biological target: chymase (UniProt P23946); test: stoichiometry of inhibition (residual enzymatic activity, colorimetric substrate); various concentrations of rIxsS41 (molar ratios 0-10) with a constant concentration of protease, 1 h at 37°C; linear regression of the inhibitory curve; conditions: scale: molecules of rIxsS41 per molecule of protease
[2] = biological target: cathepsin G (UniProt P08311); test: as above; conditions: scale: molecules of rIxsS41 per molecule of protease
Chain of UniProt P08311 (P08311 21-244): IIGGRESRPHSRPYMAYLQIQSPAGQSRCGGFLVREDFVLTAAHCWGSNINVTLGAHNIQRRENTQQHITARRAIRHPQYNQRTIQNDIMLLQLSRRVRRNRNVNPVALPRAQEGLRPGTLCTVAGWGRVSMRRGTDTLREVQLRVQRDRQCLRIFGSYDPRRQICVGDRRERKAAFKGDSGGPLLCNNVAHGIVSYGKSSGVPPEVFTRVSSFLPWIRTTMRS

[3] = biological target: chymase (UniProt P23946); test: second-order rate constant of inhibition, discontinuous method (residual enzymatic activity); rIxsS41 25-300 nM (chymase) or 100-1600 nM (cathepsin G) pre-incubated 0-15 min at 37°C with constant protease (0.1 µg); kobs plotted against rIxsS41
[4] = biological target: cathepsin G (UniProt P08311); test: as above
[5] = biological target: chymase (UniProt P23946); test: as above; remark: listed apart in the source
[6] = biological target: cathepsin G (UniProt P08311); test: as above; remark: listed apart in the source
[7] = biological target: chymase (UniProt P23946)
[8] = biological target: thrombin
[9] = biological target: chymase (UniProt P23946); remark: listed apart in the source
[10] = biological target: chymotrypsin
[11] = biological target: trypsin IV (UniProt P35030)
Chain of UniProt P35030 (P35030 81-304): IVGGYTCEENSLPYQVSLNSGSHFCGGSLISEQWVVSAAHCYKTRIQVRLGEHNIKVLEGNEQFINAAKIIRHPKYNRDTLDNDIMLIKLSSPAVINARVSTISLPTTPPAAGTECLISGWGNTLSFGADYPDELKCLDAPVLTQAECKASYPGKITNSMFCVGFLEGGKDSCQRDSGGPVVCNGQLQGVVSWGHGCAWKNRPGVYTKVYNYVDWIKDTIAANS

[12] = biological target: cathepsin G (UniProt P08311)
[13] = biological target: pancreatic trypsin

Chain of UniProt P23946 (P23946 22-247): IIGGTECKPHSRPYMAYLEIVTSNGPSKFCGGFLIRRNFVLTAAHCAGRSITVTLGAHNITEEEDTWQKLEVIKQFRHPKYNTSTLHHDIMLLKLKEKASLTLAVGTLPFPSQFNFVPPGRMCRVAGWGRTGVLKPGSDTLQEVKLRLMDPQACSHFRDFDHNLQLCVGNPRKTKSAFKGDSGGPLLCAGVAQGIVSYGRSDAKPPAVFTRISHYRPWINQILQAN

recombinant Ixodes scapularis nymph tick saliva serpin 41 (rIxsS41) (natural protein)
stoichiometry of inhibition (SI) [1]: 2.8
stoichiometry of inhibition (SI) [2]: 2.2
ka (second-order rate constant of inhibition) [3]: 6600 M⁻¹ s⁻¹
ka (second-order rate constant of inhibition) [4]: 2400 M⁻¹ s⁻¹
ka (second-order rate constant of inhibition) [5]: 2400 M⁻¹ s⁻¹
ka (second-order rate constant of inhibition) [6]: 1700 M⁻¹ s⁻¹
C48/80-induced (chymase-mediated) paw edema in BALB/c mice, co-injection of C48/80 (1 µg) with rIxsS41 (25 µg); the chymase is the mouse's own [7]: 85%
inhibition of enzymatic activity (chromogenic substrate hydrolysis), rIxsS41 1 µM, thrombin 19.8 nM, pre-incubated 15 min at 37°C [8]: 100%
inhibition of enzymatic activity (chromogenic substrate hydrolysis), rIxsS41 1 µM, chymase 34.2 nM, pre-incubated 15 min at 37°C [9]: 100%
inhibition of enzymatic activity (chromogenic substrate hydrolysis), rIxsS41 1 µM, chymotrypsin 25.7 nM, pre-incubated 15 min at 37°C [10]: 100%
inhibition of enzymatic activity (chromogenic substrate hydrolysis), rIxsS41 1 µM, trypsin IV 12.5 nM, pre-incubated 15 min at 37°C [11]: 100%
inhibition of enzymatic activity (chromogenic substrate hydrolysis), rIxsS41 1 µM, cathepsin G 154.4 nM, pre-incubated 15 min at 37°C [12]: 100%
inhibition of enzymatic activity (chromogenic substrate hydrolysis), rIxsS41 1 µM, pancreatic trypsin 0.5 nM, pre-incubated 15 min at 37°C [13]: 100%
